The nature of series [1]: αIIbβ3 cell surface expression, flow cytometry. Particulars: glycan lost; control: wild-type β3 with αIIb. For orientation: In flow cytometry, cells or beads pass a laser one at a time.
A short description of series [2]: surface expression by mAbs 10E5, AP2, AP3, flow cytometry. Particulars: glycan lost; control: wild-type αIIbβ3.
Series [3] in a line: eptifibatide-induced mAb binding, flow cytometry. To be noted: glycan lost; control: wild-type β3 with αIIb.
Series [4] is described as follows: αVβ3 cell surface expression, flow cytometry. Particulars: glycan lost; control: wild-type αV with β3.

Drawing on PMC5498496, this text covers expression_or_secretion and structure_or_conformation for 6 proteins.

B1: integrin β3 subunit: β3-N320Q-N559Q (protein)
parent chain: MRARPRPRPLWATVLALGALAGVGVGGPNICTTRGVSSCQQCLAVSPMCAWCSDEALPLGSPRCDLKENLLKDNCAPESIEFPVSEARVLEDRPLSDKGSGDSSQVTQVSPQRIALRLRPDDSKNFSIQVRQVEDYPVDIYYLMDLSYSMKDDLWSIQNLGTKLATQMRKLTSNLRIGFGAFVDKPVSPYMYISPPEALENPCYDMKTTCLPMFGYKHVLTLTDQVTRFNEEVKKQSVSRNRDAPEGGFDAIMQATVCDEKIGWRNDASHLLVFTTDAKTHIALDGRLAGIVQPNDGQCHVGSDNHYSASTTMDYPSLGLMTEKLSQKNINLIFAVTENVVNLYQNYSELIPGTTVGVLSMDSSNVLQLIVDAYGKIRSKVELEVRDLPEELSLSFNATCLNNEVIPGLKSCMGLKIGDTVSFSIEAKVRGCPQEKEKSFTIKPVGFKDSLIVQVTFDCDCACQAQAEPNSHRCNNGNGTFECGVCRCGPGWLGSQCECSEEDYRPSQQDECSPREGQPVCSQRGECLCGQCVCHSSDFGKITGKYCECDDFSCVRYKGEMCSGHGQCSCGDCLCDSDWTGYYCNCTTRTDTCMSSNGLLCSGRGKCECGSCVCIQPGSYGDTCEKCPTCPDACTFKKECVECKKFDRGALHDENTCNRYCRDEIESVKELKDTGKDAVNCTYKNEDDCVVRFQYYEDSSGKSILYVVEEPECPKGPDILVVLLSVMGAILLIGLAALLIWKLLITIHDRKEFAKFEEERARAKWDTANNPLYKEATSTFTNITYRGT
As to B1, the expression_or_secretion entry in series [1] is “decreases”.

B2: integrin β3 subunit: β3-N320S (protein)
parent chain: MRARPRPRPLWATVLALGALAGVGVGGPNICTTRGVSSCQQCLAVSPMCAWCSDEALPLGSPRCDLKENLLKDNCAPESIEFPVSEARVLEDRPLSDKGSGDSSQVTQVSPQRIALRLRPDDSKNFSIQVRQVEDYPVDIYYLMDLSYSMKDDLWSIQNLGTKLATQMRKLTSNLRIGFGAFVDKPVSPYMYISPPEALENPCYDMKTTCLPMFGYKHVLTLTDQVTRFNEEVKKQSVSRNRDAPEGGFDAIMQATVCDEKIGWRNDASHLLVFTTDAKTHIALDGRLAGIVQPNDGQCHVGSDNHYSASTTMDYPSLGLMTEKLSQKNINLIFAVTENVVNLYQNYSELIPGTTVGVLSMDSSNVLQLIVDAYGKIRSKVELEVRDLPEELSLSFNATCLNNEVIPGLKSCMGLKIGDTVSFSIEAKVRGCPQEKEKSFTIKPVGFKDSLIVQVTFDCDCACQAQAEPNSHRCNNGNGTFECGVCRCGPGWLGSQCECSEEDYRPSQQDECSPREGQPVCSQRGECLCGQCVCHSSDFGKITGKYCECDDFSCVRYKGEMCSGHGQCSCGDCLCDSDWTGYYCNCTTRTDTCMSSNGLLCSGRGKCECGSCVCIQPGSYGDTCEKCPTCPDACTFKKECVECKKFDRGALHDENTCNRYCRDEIESVKELKDTGKDAVNCTYKNEDDCVVRFQYYEDSSGKSILYVVEEPECPKGPDILVVLLSVMGAILLIGLAALLIWKLLITIHDRKEFAKFEEERARAKWDTANNPLYKEATSTFTNITYRGT
Turning to B2, the expression_or_secretion result in series [1] is reported as “decreases”.

B3: integrin β3 subunit: β3-N320R (protein)
parent chain: MRARPRPRPLWATVLALGALAGVGVGGPNICTTRGVSSCQQCLAVSPMCAWCSDEALPLGSPRCDLKENLLKDNCAPESIEFPVSEARVLEDRPLSDKGSGDSSQVTQVSPQRIALRLRPDDSKNFSIQVRQVEDYPVDIYYLMDLSYSMKDDLWSIQNLGTKLATQMRKLTSNLRIGFGAFVDKPVSPYMYISPPEALENPCYDMKTTCLPMFGYKHVLTLTDQVTRFNEEVKKQSVSRNRDAPEGGFDAIMQATVCDEKIGWRNDASHLLVFTTDAKTHIALDGRLAGIVQPNDGQCHVGSDNHYSASTTMDYPSLGLMTEKLSQKNINLIFAVTENVVNLYQNYSELIPGTTVGVLSMDSSNVLQLIVDAYGKIRSKVELEVRDLPEELSLSFNATCLNNEVIPGLKSCMGLKIGDTVSFSIEAKVRGCPQEKEKSFTIKPVGFKDSLIVQVTFDCDCACQAQAEPNSHRCNNGNGTFECGVCRCGPGWLGSQCECSEEDYRPSQQDECSPREGQPVCSQRGECLCGQCVCHSSDFGKITGKYCECDDFSCVRYKGEMCSGHGQCSCGDCLCDSDWTGYYCNCTTRTDTCMSSNGLLCSGRGKCECGSCVCIQPGSYGDTCEKCPTCPDACTFKKECVECKKFDRGALHDENTCNRYCRDEIESVKELKDTGKDAVNCTYKNEDDCVVRFQYYEDSSGKSILYVVEEPECPKGPDILVVLLSVMGAILLIGLAALLIWKLLITIHDRKEFAKFEEERARAKWDTANNPLYKEATSTFTNITYRGT
For B3, the expression_or_secretion result in series [2] was “no change”. The structure_or_conformation entry in series [3] was “decreases”.

B4: integrin αV subunit: αV-N950Q (protein)
parent chain: MAFPPRRRLRLGPRGLPLLLSGLLLPLCRAFNLDVDSPAEYSGPEGSYFGFAVDFFVPSASSRMFLLVGAPKANTTQPGIVEGGQVLKCDWSSTRRCQPIEFDATGNRDYAKDDPLEFKSHQWFGASVRSKQDKILACAPLYHWRTEMKQEREPVGTCFLQDGTKTVEYAPCRSQDIDADGQGFCQGGFSIDFTKADRVLLGGPGSFYWQGQLISDQVAEIVSKYDPNVYSIKYNNQLATRTAQAIFDDSYLGYSVAVGDFNGDGIDDFVSGVPRAARTLGMVYIYDGKNMSSLYNFTGEQMAAYFGFSVAATDINGDDYADVFIGAPLFMDRGSDGKLQEVGQVSVSLQRASGDFQTTKLNGFEVFARFGSAIAPLGDLDQDGFNDIAIAAPYGGEDKKGIVYIFNGRSTGLNAVPSQILEGQWAARSMPPSFGYSMKGATDIDKNGYPDLIVGAFGVDRAILYRARPVITVNAGLEVYPSILNQDNKTCSLPGTALKVSCFNVRFCLKADGKGVLPRKLNFQVELLLDKLKQKGAIRRALFLYSRSPSHSKNMTISRGGLMQCEELIAYLRDESEFRDKLTPITIFMEYRLDYRTAADTTGLQPILNQFTPANISRQAHILLDCGEDNVCKPKLEVSVDSDQKKIYIGDDNPLTLIVKAQNQGEGAYEAELIVSIPLQADFIGVVRNNEALARLSCAFKTENQTRQVVCDLGNPMKAGTQLLAGLRFSVHQQSEMDTSVKFDLQIQSSNLFDKVSPVVSHKVDLAVLAAVEIRGVSSPDHVFLPIPNWEHKENPETEEDVGPVVQHIYELRNNGPSSFSKAMLHLQWPYKYNNNTLLYILHYDIDGPMNCTSDMEINPLRIKISSLQTTEKNDTVAGQGERDHLITKRDLALSEGDIHTLGCGVAQCLKIVCQVGRLDRGKSAILYVKSLLWTETFMNKENQNHSYSLKSSASFNVIEFPYKNLPIEDITNSTLVTTNVTWGIQPAPMPVPVWVIILAVLAGLLLLAVLVFVMYRMGFFKRVRPPQEEQEREQLQPHENGEGNSET
Regarding B4, in series [4], the expression_or_secretion entry was “decreases”.

B5: integrin αV subunit: αV-N943Q (protein)
parent chain: MAFPPRRRLRLGPRGLPLLLSGLLLPLCRAFNLDVDSPAEYSGPEGSYFGFAVDFFVPSASSRMFLLVGAPKANTTQPGIVEGGQVLKCDWSSTRRCQPIEFDATGNRDYAKDDPLEFKSHQWFGASVRSKQDKILACAPLYHWRTEMKQEREPVGTCFLQDGTKTVEYAPCRSQDIDADGQGFCQGGFSIDFTKADRVLLGGPGSFYWQGQLISDQVAEIVSKYDPNVYSIKYNNQLATRTAQAIFDDSYLGYSVAVGDFNGDGIDDFVSGVPRAARTLGMVYIYDGKNMSSLYNFTGEQMAAYFGFSVAATDINGDDYADVFIGAPLFMDRGSDGKLQEVGQVSVSLQRASGDFQTTKLNGFEVFARFGSAIAPLGDLDQDGFNDIAIAAPYGGEDKKGIVYIFNGRSTGLNAVPSQILEGQWAARSMPPSFGYSMKGATDIDKNGYPDLIVGAFGVDRAILYRARPVITVNAGLEVYPSILNQDNKTCSLPGTALKVSCFNVRFCLKADGKGVLPRKLNFQVELLLDKLKQKGAIRRALFLYSRSPSHSKNMTISRGGLMQCEELIAYLRDESEFRDKLTPITIFMEYRLDYRTAADTTGLQPILNQFTPANISRQAHILLDCGEDNVCKPKLEVSVDSDQKKIYIGDDNPLTLIVKAQNQGEGAYEAELIVSIPLQADFIGVVRNNEALARLSCAFKTENQTRQVVCDLGNPMKAGTQLLAGLRFSVHQQSEMDTSVKFDLQIQSSNLFDKVSPVVSHKVDLAVLAAVEIRGVSSPDHVFLPIPNWEHKENPETEEDVGPVVQHIYELRNNGPSSFSKAMLHLQWPYKYNNNTLLYILHYDIDGPMNCTSDMEINPLRIKISSLQTTEKNDTVAGQGERDHLITKRDLALSEGDIHTLGCGVAQCLKIVCQVGRLDRGKSAILYVKSLLWTETFMNKENQNHSYSLKSSASFNVIEFPYKNLPIEDITNSTLVTTNVTWGIQPAPMPVPVWVIILAVLAGLLLLAVLVFVMYRMGFFKRVRPPQEEQEREQLQPHENGEGNSET
As for B5, the expression_or_secretion entry in series [4] is reported as “decreases”.

B6: integrin αV subunit: αV-N458Q (protein)
parent chain: MAFPPRRRLRLGPRGLPLLLSGLLLPLCRAFNLDVDSPAEYSGPEGSYFGFAVDFFVPSASSRMFLLVGAPKANTTQPGIVEGGQVLKCDWSSTRRCQPIEFDATGNRDYAKDDPLEFKSHQWFGASVRSKQDKILACAPLYHWRTEMKQEREPVGTCFLQDGTKTVEYAPCRSQDIDADGQGFCQGGFSIDFTKADRVLLGGPGSFYWQGQLISDQVAEIVSKYDPNVYSIKYNNQLATRTAQAIFDDSYLGYSVAVGDFNGDGIDDFVSGVPRAARTLGMVYIYDGKNMSSLYNFTGEQMAAYFGFSVAATDINGDDYADVFIGAPLFMDRGSDGKLQEVGQVSVSLQRASGDFQTTKLNGFEVFARFGSAIAPLGDLDQDGFNDIAIAAPYGGEDKKGIVYIFNGRSTGLNAVPSQILEGQWAARSMPPSFGYSMKGATDIDKNGYPDLIVGAFGVDRAILYRARPVITVNAGLEVYPSILNQDNKTCSLPGTALKVSCFNVRFCLKADGKGVLPRKLNFQVELLLDKLKQKGAIRRALFLYSRSPSHSKNMTISRGGLMQCEELIAYLRDESEFRDKLTPITIFMEYRLDYRTAADTTGLQPILNQFTPANISRQAHILLDCGEDNVCKPKLEVSVDSDQKKIYIGDDNPLTLIVKAQNQGEGAYEAELIVSIPLQADFIGVVRNNEALARLSCAFKTENQTRQVVCDLGNPMKAGTQLLAGLRFSVHQQSEMDTSVKFDLQIQSSNLFDKVSPVVSHKVDLAVLAAVEIRGVSSPDHVFLPIPNWEHKENPETEEDVGPVVQHIYELRNNGPSSFSKAMLHLQWPYKYNNNTLLYILHYDIDGPMNCTSDMEINPLRIKISSLQTTEKNDTVAGQGERDHLITKRDLALSEGDIHTLGCGVAQCLKIVCQVGRLDRGKSAILYVKSLLWTETFMNKENQNHSYSLKSSASFNVIEFPYKNLPIEDITNSTLVTTNVTWGIQPAPMPVPVWVIILAVLAGLLLLAVLVFVMYRMGFFKRVRPPQEEQEREQLQPHENGEGNSET
Take B6: the expression_or_secretion entry in series [4] is reported as “no change”.
